Test results published in patent publication US20220308061A1.

Biological target: NY-ESO-1 peptide presented in the stimulated PBMC culture
Test: cell-based or functional assay

NY-ESO TCR (clone 1G4)
percent of CD8+ T cells CD137+/NGFR+ after antigen stimulation (% of CD8+ T cells): 0.69
percent of CD8+ T cells IFNγ+/NGFR+ after antigen stimulation (% of CD8+ T cells): 0.47
percent of CD8+ T cells TNFα+/NGFR+ after antigen stimulation (% of CD8+ T cells): 0.41
